For assay [1], the target named is GST-α-actinin R2 (UniProt P05094). Kind of assay: pull-down; competition: 2 µg GST-α-actinin R2 on glutathione-sepharose, cross-linked with dimethyl pimelimidate; 1 ml of 250 nM His6-GluN1 cytoplasmic domain with increasing amounts of ICAM-5 cytoplasmic domain, RT 1 h; bound His6-GluN1 by western blotting, band intensities fitted to an exponential decay …. (In general: In western blotting, separated proteins are transferred to a membrane and probed.)

The target of assay [2] is GST-α-actinin R1-R4 (the whole rod domain) (UniProt P05094). Kind of assay: ELISA. The note with it: ICAM-5 cytoplasmic domains coated on plates and incubated with GST-α-actinin rod domains; values normalized to the level of BSA binding; parent: est. 0.28; read off a plot.
In assay [3] the target is GST-α-actinin R1. Kind of assay: ELISA. The note with it: ICAM-5 cytoplasmic domains coated on plates and incubated with GST-α-actinin rod domains; values normalized to the level of BSA binding; parent: est. 0.10; read off a plot. Background: In an ELISA, binding on a coated surface is turned into a signal by an enzyme label.
Assay [4] concerns the target GST-α-actinin R2 (UniProt P05094). Description: ELISA. The note with it: ICAM-5 cytoplasmic domains coated on plates and incubated with GST-α-actinin rod domains; values normalized to the level of BSA binding; parent: est. 0.22; read off a plot.
Assay [5] deals with GST-α-actinin R3. Kind of assay: ELISA. The note with it: ICAM-5 cytoplasmic domains coated on plates and incubated with GST-α-actinin rod domains; values normalized to the level of BSA binding; parent: est. 0.072; read off a plot.
The target in assay [6] is GST-α-actinin R4 (UniProt P05094). Description: ELISA. The note with it: ICAM-5 cytoplasmic domains coated on plates and incubated with GST-α-actinin rod domains; values normalized to the level of BSA binding; parent: est. 0.020; read off a plot.

Chain of UniProt P05094 (P05094 387-510): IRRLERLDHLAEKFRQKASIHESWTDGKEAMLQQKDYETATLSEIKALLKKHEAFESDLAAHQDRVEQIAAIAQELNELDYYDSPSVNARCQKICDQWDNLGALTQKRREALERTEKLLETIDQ

By IC50 is commonly meant the concentration that gives 50% inhibition. A higher IC50 goes with weaker potency in that assay. For the substance “ICAM-5 cytoplasmic domain (WT) (from UniProt Q9UMF0 857-924) (domain or fragment)”, the IC50 in assay [1] was determined as 55 nM.

For “ICAM-5 cytoplasmic domain (WT) (from UniProt Q9UMF0) K857A; K858A”, the response stood at 0.015 A492 in assay [2]; 0.035 A492 in assay [3]; 0.015 A492 in assay [4]; 0.02 A492 in assay [5]; 0.022 A492 in assay [6].

These data come from PMC4365481.
